Patent publication US20260209316A1 (US Dept. of Health and Human Services, published 2026)
Where two headings read alike, the source gives them in different places.

Legend:
[1] = biological target: T1, mucin domain-deleted Sudan GP (GPdMuc) (Sudan virus (SUDV), UniProt Q7T9D9 33-632); test: ELISA on coated GP
T1 construct: also called Sudan GPdMuc; GP(S)dMuc

[2] = biological target: T2, mucin domain-deleted Zaire GP (GPdMuc) (Ebola (Zaire) virus (EBOV), UniProt Q05320 33-632); test: ELISA on coated GP
T2 construct: also called Zaire GPdMuc; GP(Z)dMuc

[3] = biological target: T1, mucin domain-deleted Sudan GP (GPdMuc); test: ELISA on coated GP (EC50)
[4] = biological target: T1, mucin domain-deleted Sudan GP (GPdMuc); test: ELISA on coated GP; remark: listed apart in the source
[5] = biological target: T2, mucin domain-deleted Zaire GP (GPdMuc); test: ELISA on coated GP; remark: listed apart in the source
[6] = biological target: T2, mucin domain-deleted Zaire GP (GPdMuc); test: BLI competition on Zaire GPdMuc (upper table); competitor 13C6
[7] = biological target: T2, mucin domain-deleted Zaire GP (GPdMuc); test: BLI competition on Zaire GPdMuc (upper table); competitor 380L
[8] = biological target: T2, mucin domain-deleted Zaire GP (GPdMuc); test: BLI competition on Zaire GPdMuc (upper table); competitor KZ52
[9] = biological target: T1, mucin domain-deleted Sudan GP (GPdMuc); test: BLI competition on Sudan GPdMuc (lower table); competitor 15H10
[10] = biological target: T2, mucin domain-deleted Zaire GP (GPdMuc); test: BLI competition on Zaire GPdMuc (upper table); competitor 15H10
[11] = biological target: T1, mucin domain-deleted Sudan GP (GPdMuc); test: BLI competition on Sudan GPdMuc (lower table); competitor mAb166
[12] = biological target: T2, mucin domain-deleted Zaire GP (GPdMuc); test: BLI competition on Zaire GPdMuc (upper table); competitor mAb114
[13] = biological target: T2, mucin domain-deleted Zaire GP (GPdMuc); test: BLI competition on Zaire GPdMuc (upper table); competitor 316L
[14] = biological target: T3, mucin domain-deleted Sudan GP (GPdMuc) (Sudan virus (SUDV), UniProt Q7T9D9 33-632); test: ELISA on coated GP
[15] = biological target: T3, mucin domain-deleted Sudan GP (GPdMuc); test: ELISA on coated GP; remark: listed apart in the source
[16] = biological target: T3, mucin domain-deleted Sudan GP (GPdMuc); test: BLI competition on Sudan GPdMuc (lower table); competitor 15H10
[17] = biological target: T3, mucin domain-deleted Sudan GP (GPdMuc); test: BLI competition on Sudan GPdMuc (lower table); competitor mAb166
[18] = biological target: T1, mucin domain-deleted Sudan GP (GPdMuc); test: ELISA on coated GP; remark: listed apart in the source
[19] = biological target: T4, mucin domain-deleted Zaire GP (GPdMuc) (Ebola (Zaire) virus (EBOV), UniProt Q05320 33-632); test: ELISA on coated GP
[20] = biological target: T4, mucin domain-deleted Zaire GP (GPdMuc); test: ELISA on coated GP; remark: listed apart in the source
[21] = biological target: T4, mucin domain-deleted Zaire GP (GPdMuc); test: BLI competition on Zaire GPdMuc (upper table); competitor 13C6
[22] = biological target: T4, mucin domain-deleted Zaire GP (GPdMuc); test: BLI competition on Zaire GPdMuc (upper table); competitor 316L
[23] = biological target: T4, mucin domain-deleted Zaire GP (GPdMuc); test: BLI competition on Zaire GPdMuc (upper table); competitor 380L
[24] = biological target: T4, mucin domain-deleted Zaire GP (GPdMuc); test: BLI competition on Zaire GPdMuc (upper table); competitor KZ52
[25] = biological target: T4, mucin domain-deleted Zaire GP (GPdMuc); test: BLI competition on Zaire GPdMuc (upper table); competitor 15H10
[26] = biological target: T4, mucin domain-deleted Zaire GP (GPdMuc); test: BLI competition on Zaire GPdMuc (upper table); competitor mAb114

B1: antibody 232L (antibody, V domains shown)
VH: KSQLVESGGGLVQPGGSLRLSCAASGFTFDAYAMHWVRQAPGEGLEWVTAISWSGSSTYYADSVKGRFTFSRDNAKNSLYLEMNSLRADDTAFYYCVKGGVYNWFDVWGPGVLVTVSS
VL: QSVLTQPPSVSGAPGQRVTISCTGSRSNIGGYYVSWYQQFPGTTPKLLIYQDNKRPSGVSDRFSGSKSGTSASLTITGLQTEDEADYYCLSYDSSLNGWVFGGGTRLTVL
- EC50 [1]: > 10 µg/mL
- EC50 [2]: 0.08 µg/mL
- EC50 [3]: > 10 µg/mL

B2: antibody 316L (antibody, V domains shown)
VH: EERLVESGGGLVQPGGSLRLSCAASGFTFGDYAMHWVRQVPGKSLEWLSGISWSGYTTYSADSVKGRFTISRDNAKNSLYLQMNRLRPEDTGLYYCVTLIGAIGIKDSLDVWGRGVLVTVSS
VL: QSVLTQPPSVSGAPGQRVTVSCSGSSSNIGAGNYVQWYQQLPGTAPKVLIYQTEKRPSGTSDRFSGSKSDTSASLTINGLQSEDEADYYCQVYDSNLNGWVFGGGTRLTVLG
notes: also called 316L mAb; mAb 316L
- EC50 [4]: 0.0272 µg/mL
- EC50 [5]: 0.0124 µg/mL
- % inhibition of binding [6]: 98%
- % inhibition of binding [7]: 92%
- % inhibition of binding [8]: 13%
- % inhibition of binding [9]: 14.5%
- % inhibition of binding [10]: 26%
- % inhibition of binding [11]: 80%
- % inhibition of binding [12]: 100%

B3: antibody 380L (antibody, V domains shown)
VH: EVQLVESGGGLVQPGGSLTLSCAASGFTFGDYVMHWVRQVPGRGLEWLSAVSWSGYTTYSADSVKGRFTISRDNAKNSLYLQMSRLGTADTGLYYCVTLIGAIGIRDSFDAWGRGVLVTVSS
VL: QSVLTQPPSMSGAPGQRVTVSCTGSSSNIGAGNYVQWYQQLPGTAPKVLIYQTDKRPSGISDRFSGSKSGTSASLTISGLQSEDEADYYCQVYDSSLNGWVFGGGTRLTVL
notes: also called 380L mAb; mAb 380L
- EC50 [4]: 0.0238 µg/mL
- EC50 [5]: 0.012 µg/mL
- % inhibition of binding [6]: 97%
- % inhibition of binding [13]: 93%
- % inhibition of binding [8]: 13%
- % inhibition of binding [9]: 3.6%
- % inhibition of binding [10]: 24%
- % inhibition of binding [11]: 81.9%
- % inhibition of binding [12]: 100%

B4: antibody 16F6 (antibody, V domains shown)
VH: EVQLVESGGGLVTPGGSLKLSCAASGFAFNYYDMFWVRQNTEKRLEWVAYINSGGGNTYYPDTVKGRFTISRDNAKKTLFLQMSSLRSEDTAMYYCARQLYGNSFFDYWGQGTSLTVSA
VL: DIVMTQSHKFMSTSVGDRVTITCKASQDVTTAVAWYQQKPGHSPKLLIYWASTRHTGVPDRFTGSGSGTDFTLTLNSVQAEDLALYYCQQHYSTPLTFGAGTKLELK
- EC50 [14]: 0.0558 µg/mL
- EC50 [15]: 0.05 µg/mL
- % inhibition of binding [16]: 7.8%
- % inhibition of binding [17]: 0.2%

B5: antibody 545S (antibody, V domains shown)
VH: QVQLQESGPGLVKPSQTLSLTCTVSGGSISRAGSYWSWIRQHPGKGLEWIGYISYSGSTYYNPSLESRVTMSLDTSKSQFSLKLSSVTAADTAVYYCAREDRSGFYGLDVWGQGTTVTVSS
VL: QSVLTQPSSLSASPGATASLTCTLRSGINVDTYRIYWYQQKPGSPPQYLLRYKSDSDKHQGSGVPSRFSGSKDASANAGILLISGLQSADEADYYCMIWHSGAWVFGGGTKLTVQG
notes: also called 545S mAb
- EC50 [18]: 0.0233 µg/mL

B6: antibody 291S (antibody, V domains shown)
VH: QVQLQESGPGLVKPSQTLSLTCTVSGGSFSSGFYWSWIRQRPGKGLEWVGYTYYSGSTYYNPSLQSRVTISVDTSKNQFSLNLSSVTAADTAVYHCARADYGGLFDYWGQGILVTVSS
VL: QSVLTQPSSLSASPGASASLTCTLRSGINVGTYRIFWYQQKPGSPPQFLLRYNSDSDKQQGSGVPSRFSGSKDASANAGILLISGLQSEDEADYYCMIWHTSAWVFGGGTKLTVL
- EC50 [18]: 0.0519 µg/mL

B7: antibody mAb114 (antibody, V domains shown)
VH: EVQLVESGGGLIQPGGSLRLSCAASGFALRMYDMHWVRQTIDKRLEWVSAVGPSGDTYYADSVKGRFAVSRENAKNSLSLQMNSLTAGDTAIYYCVRSDRGVAGLFDSWGQGILVTVSS
VL: DIQMTQSPSSLSASVGDRITITCRASQAFDNYVAWYQQRPGKVPKLLISAASALHAGVPSRFSGSGSGTHFTLTISSLQPEDVATYYCQNYNSAPLTFGGGTKVEIK
- EC50 [19]: 0.00904 µg/mL
- EC50 [20]: 0.007 µg/mL
- % inhibition of binding [21]: 92%
- % inhibition of binding [22]: 96%
- % inhibition of binding [23]: 95%
- % inhibition of binding [24]: 10%
- % inhibition of binding [25]: 3%

B8: antibody 13C6 (antibody, V domains shown)
VH: QLTLKESGPGILKPSQTLSLTCSLSGFSLSTSGVGVGWFRQPSGKGLEWLALIWWDDDKYYNPSLKSQLSISKDFSRNQVFLKISNVDIADTATYYCARRDPFGYDNAMGYWGQGTSVTVSS
VL: DIVMTQSQKFMSTSVGDRVSLTCKASQNVGTAVAWYQQKPGQSPKLLIYSASNRYTGVPDRFTGSGSGTDFTLTISNMQSEDLADYFCQQYSSYPLTFGAGTKLELR
- % inhibition of binding [22]: 95%
- % inhibition of binding [23]: 95%
- % inhibition of binding [24]: 16%
- % inhibition of binding [25]: 1%
- % inhibition of binding [26]: 97%
